Earlier results as cited in paper PMC5113071.
pKd: −log10 of the molar value. Like-named read-outs stand apart in the source and are kept apart here. Blank lines part the entries; values can stand above or below the substance they belong to.

Key:
NRP1 (Homo sapiens) [1] = target: NRP1 (Homo sapiens) (UniProt O14786)
NRP1 (Homo sapiens) [2] = target: NRP1 (Homo sapiens) (UniProt O14786); remark: listed apart in the source
[3] = target: alpha-2-macroglobulin (Homo sapiens) (UniProt P01023)
VEGFR1 (Homo sapiens) = VEGFR1 (Homo sapiens) (UniProt P17948)
VEGFR2 (Homo sapiens) = VEGFR2 (Homo sapiens) (UniProt P35968)
[4] = target: alpha-2-macroglobulin fast form (Homo sapiens) (UniProt P01023)

UniProt P35968, sequence (P35968 20-1356): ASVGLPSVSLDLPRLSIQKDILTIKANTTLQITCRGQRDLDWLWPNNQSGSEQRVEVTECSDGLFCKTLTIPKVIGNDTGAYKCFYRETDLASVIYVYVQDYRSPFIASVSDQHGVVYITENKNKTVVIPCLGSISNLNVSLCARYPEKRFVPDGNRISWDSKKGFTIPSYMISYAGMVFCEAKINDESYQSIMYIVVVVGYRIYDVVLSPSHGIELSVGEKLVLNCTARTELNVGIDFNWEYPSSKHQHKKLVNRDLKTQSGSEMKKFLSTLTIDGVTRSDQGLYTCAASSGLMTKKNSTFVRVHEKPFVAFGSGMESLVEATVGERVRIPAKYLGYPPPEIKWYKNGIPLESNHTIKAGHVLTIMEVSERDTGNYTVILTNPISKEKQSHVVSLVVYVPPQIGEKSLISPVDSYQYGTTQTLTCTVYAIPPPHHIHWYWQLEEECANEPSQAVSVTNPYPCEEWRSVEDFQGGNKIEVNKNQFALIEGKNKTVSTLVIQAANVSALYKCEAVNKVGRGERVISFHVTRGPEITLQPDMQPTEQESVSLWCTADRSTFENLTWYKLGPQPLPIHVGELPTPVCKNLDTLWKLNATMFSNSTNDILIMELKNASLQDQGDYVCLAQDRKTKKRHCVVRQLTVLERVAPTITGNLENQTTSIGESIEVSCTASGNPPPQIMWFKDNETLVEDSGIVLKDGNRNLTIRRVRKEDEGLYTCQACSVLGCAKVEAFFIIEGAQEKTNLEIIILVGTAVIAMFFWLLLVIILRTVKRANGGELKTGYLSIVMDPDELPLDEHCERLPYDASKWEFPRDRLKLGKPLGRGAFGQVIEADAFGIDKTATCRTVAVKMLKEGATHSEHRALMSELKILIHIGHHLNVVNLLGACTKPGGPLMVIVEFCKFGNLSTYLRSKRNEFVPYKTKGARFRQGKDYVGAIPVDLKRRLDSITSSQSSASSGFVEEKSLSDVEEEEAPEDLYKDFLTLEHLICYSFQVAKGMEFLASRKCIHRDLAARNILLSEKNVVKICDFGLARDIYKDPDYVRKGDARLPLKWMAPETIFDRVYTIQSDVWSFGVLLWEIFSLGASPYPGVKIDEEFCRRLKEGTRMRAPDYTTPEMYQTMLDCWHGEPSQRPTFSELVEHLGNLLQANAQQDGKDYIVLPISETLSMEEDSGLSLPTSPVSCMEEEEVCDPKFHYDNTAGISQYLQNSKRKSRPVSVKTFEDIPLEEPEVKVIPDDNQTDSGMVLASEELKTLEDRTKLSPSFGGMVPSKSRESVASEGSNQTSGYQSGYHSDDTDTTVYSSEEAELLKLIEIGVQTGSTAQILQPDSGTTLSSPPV

- pKd (NRP1 (Homo sapiens) [1]): 9.51
Substance: VEGF165a and VEGF121 (from UniProt P15692)

- pKd (NRP1 (Homo sapiens) [2]): 8.74
Substance: sVEGFR1 (from UniProt P17948)

- pKd [3]: 5.40
- pKd (VEGFR1 (Homo sapiens)): 10.48
- pKd (VEGFR2 (Homo sapiens)): 10.00
- pKd [4]: 6.38
Substance: VEGF165a, VEGF165b and VEGF121 (from UniProt P15692)
